Here are results for 5 sequences from the Immune Epitope Database (IEDB).

The target of one assay is HLA-B*73:01. Briefly: IEDB peptide-MHC binding, purified MHC/direct/fluorescence; filed as Kd, often an IC50 or EC50 that approximates it; ≥ and ≤ were set here for values at or beyond the usual limits of such assays. The note with it: source organism: Homo sapiens.
The target of a further assay is HLA-C*07:02. The description is as above. The note with it: source organism: Homo sapiens.
The target of a further assay is HLA-C*15:02. The assay is described as above. To be noted: source organism: Vibrio vulnificus CMCP6.
The target of assay [1] is HLA-B*48:01. Kind of assay: IEDB peptide-MHC binding, purified MHC/competitive/fluorescence; filed as Kd, often an IC50 or EC50 that approximates it; ≥ and ≤ were set here for values at or beyond the usual limits of such assays. To be noted: source organism: Vibrio vulnificus CMCP6.
Another assay addresses HLA-B*58:01. Briefly: IEDB peptide-MHC binding, purified MHC/direct/fluorescence; filed as Kd, often an IC50 or EC50 that approximates it; ≥ and ≤ were set here for values at or beyond the usual limits of such assays.
For another assay, the target named is HLA-B*40:01. The assay is described as above.
For the next assay, the target named is HLA-B*18:01. The description is as above.
For a further assay, the target named is HLA-B*51:01. The assay is described as above. The note with it: source organism: Mycobacterium tuberculosis.
In a further assay the target is HLA-A*01:01. The description is as above.
The target in another assay is HLA-A*11:01. Described as above.
In another assay the target is HLA-B*38:01. The assay is described as above. The note with it: source organism: Mycobacterium tuberculosis str. Haarlem.
Another assay has as its target HLA-A*69:01. Described as above.
A further assay deals with HLA-A*31:01. Described as above.
For the next assay, the target named is HLA-B*15:01. Described as above. The note with it: source organism: Mycobacterium tuberculosis.
For the next assay, the target named is HLA-A*03:01. Described as above. The note with it: source organism: Mycobacterium tuberculosis.
A further assay has as its target HLA-B*07:02. Described as above.
Another assay concerns the target HLA-B*27:05. Described as above.
For the next assay, the target named is HLA-B*57:01. The assay is described as above.
The target of another assay is HLA-B*46:01. Described as above. The note with it: source organism: Mycobacterium tuberculosis.
A further assay deals with HLA-B*15:17. The assay is described as above.
For assay [2], the target named is HLA-B*48:01. The description is as above.
A further assay addresses HLA-A*02:01. The assay is described as above.
A further assay deals with HLA-B*15:09. Kind of assay: IEDB peptide-MHC binding, purified MHC/competitive/fluorescence; filed as Kd, often an IC50 or EC50 that approximates it; ≥ and ≤ were set here for values at or beyond the usual limits of such assays.
A further assay addresses HLA-B*39:01. Described as above. To be noted: source organism: Mycobacterium tuberculosis variant bovis BCG str. Pasteur 1173P2.
In the next assay the target is HLA-B*08:01. Kind of assay: IEDB peptide-MHC binding, purified MHC/direct/fluorescence; filed as Kd, often an IC50 or EC50 that approximates it; ≥ and ≤ were set here for values at or beyond the usual limits of such assays. To be noted: source organism: Ravn virus - Ravn, Kenya, 1987.
A further assay concerns the target HLA-A*68:02. Described as above. To be noted: source organism: Marburg virus - Musoke, Kenya, 1980.
Another assay addresses HLA-A*26:01. Described as above. To be noted: source organism: Ravn virus - Ravn, Kenya, 1987.
A further assay concerns the target HLA-B*44:02. The assay is described as above. To be noted: source organism: Marburg virus - Musoke, Kenya, 1980.
The target in a further assay is HLA-B*40:02. Briefly: IEDB peptide-MHC binding, cellular MHC/competitive/fluorescence; ≥ and ≤ were set here for values at or beyond the usual limits of such assays. To be noted: source organism: Homo sapiens.
Where [3] appears, read: source organism: Mycobacterium tuberculosis.
Where [4] appears, read: source organism: Marburg virus - Musoke, Kenya, 1980.

pIC50, pKd: −log10 of the molar value.

As for FPLWWVSSI, the pKd was not above 4.70 in the assay with HLA-B*73:01 and 5.64 in the assay with HLA-C*07:02.
In the case of RIHDIAVQL, the negative-log Kd (pKd) was 6.71 with HLA-C*15:02 and 6.95 with HLA-B*48:01 [1].
Take GPASLPTAL: the pKd in the assay with HLA-B*58:01 (setting [3]), with HLA-B*40:01 (setting [3]), in the assay with HLA-B*18:01 (setting [3]), with HLA-B*51:01, with HLA-A*01:01 (setting [3]) and with HLA-A*11:01 (setting [3]) was not above 4.70 throughout. Further, the pKd with HLA-B*38:01 is not above 4.70; with HLA-A*69:01 (setting [3]), 5.91; in the assay with HLA-A*31:01 (setting [3]) it was not above 4.70; with HLA-B*15:01, not above 4.70; with HLA-A*03:01, not above 4.70; with HLA-B*07:02 (setting [3]), 7.38. For the same sequence, the pKd in the assay with HLA-B*27:05 (setting [3]) was not above 4.70; with HLA-B*57:01 (setting [3]), not above 4.70; with HLA-B*46:01, not above 4.70; with HLA-B*15:17 (setting [3]), not above 4.70; with HLA-B*48:01 [2] (setting [3]), 5.55; with HLA-A*02:01 (setting [3]), not above 4.70. The pKd with HLA-B*15:09 (source organism: Mycobacterium tuberculosis variant bovis BCG str. Pasteur 1173P2) was not above 4.70; with HLA-B*39:01, 6.17.
For AEILSGRVI, the pKd in the assay with HLA-B*58:01 (setting [4]) was not above 4.70; in the assay with HLA-B*40:01 (setting [4]), 8.26; in the assay with HLA-B*18:01 (setting [4]), 4.78; with HLA-A*01:01 (setting [4]) it was not above 4.70; with HLA-A*11:01 (setting [4]) it was not above 4.70; with HLA-B*08:01, not above 4.70. Moreover, the negative logarithm of the Kd (pKd) with HLA-A*69:01 (setting [4]), with HLA-A*31:01 (setting [4]), with HLA-B*07:02 (setting [4]), in the assay with HLA-A*68:02, in the assay with HLA-B*27:05 (setting [4]) and with HLA-A*26:01 was not above 4.70 throughout. Further, the pKd was not above 4.70 in the assay with HLA-B*57:01 (setting [4]); not above 4.68 in the assay with HLA-B*44:02; not above 4.70 with HLA-B*15:17 (setting [4]); not above 4.70 in the assay with HLA-B*48:01 [2] (setting [4]); not above 4.70 with HLA-A*02:01 (setting [4]); not above 4.70 in the assay with HLA-B*15:09 (source organism: Orthomarburgvirus marburgense).
In turn, SEFSDVDKL showed a negative logarithm of the IC50 (pIC50) in the assay with HLA-B*40:02 of 5.85.
